Measurements published in patent US20250326826A1 (CENTRO DE INGENIER A GEN TICA Y BIOTECNOLOG A, published 2025).

T1: GST-hVEGF121 (human, UniProt P15692-9 27-147)
T1 construct: plate coating of the VEGF ELISAs; also called human VEGF; not shown: glutathione S-transferase (GST) fusion partner
T1 sequence (looked up): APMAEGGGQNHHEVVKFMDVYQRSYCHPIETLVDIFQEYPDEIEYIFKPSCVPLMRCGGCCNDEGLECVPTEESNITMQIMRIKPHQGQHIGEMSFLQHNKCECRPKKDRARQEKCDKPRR

B1: Nb-VV6 (VHH)
chain: QVQLVESGGGLVQPGGSLRLSCAASGNSAEDRLYNSYTWFRQAPGQGLEAVAAISSHFSAGLTYYADSVKGRFTISRDNSKNTLYLQMNSLRAEDTAVYYCEITSHASHNDAWSTPRTVWGQGTLVTVSSAHHSEDPSSKAPKAPAQVQLVESGGGLVQPGGSLRLSCAASGNSAQDRLYNSYTWFRQAPGQGLEAVAAISSHFSAGLTYYADSVKGRFTISRDNSKNTLYLQMNSLRAEDTAVYYCEITSHASHNDAWSTPRTVWGQGTLVTVSSAAAGSEQKLISEEDLNSHHHHHH
notes: Bivalent monospecific tandem VHH for VEGF, hinge spacer with cysteines replaced by alanines; with c-myc and histidine tag
B2: Nb-FF2 (VHH)
chain: QVQLVESGGGLVQPGGSLRLSCAASGTEDGRLLTLGGSWFRQAPGQGLEAVAAIGAGDRGGATYYADSVKGRFTISRDNSKNTLYLQMNSLRAEDTAVYYCTALYERQPQLAATKVARKWGQGTLVTVSSAHHSEDPSSKAPKAPAQVQLVESGGGLVQPGGSLRLSCAASGTEDGRLLTLGGSWFRQAPGQGLEAVAAIGAGDRGGATYYADSVKGRFTISRDNSKNTLYLQMNSLRAEDTAVYYCTALYERQPQLAATKVARKWGQGTLVTVSSAAAGSEQKLISEEDLNSHHHHHH
notes: Bivalent monospecific tandem VHH for bFGF; with c-myc and histidine tag

Columns and labels:
GST-hVEGF121 [1] = molecular target: T1, GST-hVEGF121; experiment: ELISA, coated GST-hVEGF
Method: (§1) The 96-well plates were coated with 100 μL/well of a solution of GST-hVEGF121, GST-mVEGF120, or GST at a concentration of 20 μg/mL, or with a solution of VEGFKDR- at a concentration of 10 μg/mL, or hFGF-2 or mFGF-2 at a concentration of 5 μg/mL in 1×PBS for 16 hours at 4° C. After the plates were blocked with PBS-5% skim milk for one hour, 1:2 serial dilutions of the purified VHHs were added, starting at 2 μg/mL in PBS-0.5% skim milk. The plates were incubated for 1 hour at 37° C. and after several washes, the monoclonal antibody 9E10, specific for c-myc, was added. After one hour of incubation at 25° C. the plates were washed thoroughly. The binding of the fragment to the antigen in the solid phase was detected by the peroxidase activity using 100 μL/well of TMB. The reaction was stopped with 50 μL/well of stop solution, and absorbance values at 450 nm were determined in a microtiter plate reader.
SEQ ID NO: 18 and SEQ ID NO: 19, and the bivalent Nb-VV6 and Nb-FF2, with sequences identified as SEQ ID NO: 20 and SEQ ID NO: 21, were expressed and purified as described in the Example 1. […] The biological activity of the polypeptides was evaluated by ELISA for recognition of the VEGF and bFGF antigens, and by their ability to displace VEGF and bFGF binding to their respective VEGFR2 and FGFR1 receptors. […]

[2] = molecular target: VEGF (soluble stimulus added to cell cultures); experiment: cell-based or functional assay
VEGF (soluble stimulus added to cell cultures), sequence (P15692 whole entry): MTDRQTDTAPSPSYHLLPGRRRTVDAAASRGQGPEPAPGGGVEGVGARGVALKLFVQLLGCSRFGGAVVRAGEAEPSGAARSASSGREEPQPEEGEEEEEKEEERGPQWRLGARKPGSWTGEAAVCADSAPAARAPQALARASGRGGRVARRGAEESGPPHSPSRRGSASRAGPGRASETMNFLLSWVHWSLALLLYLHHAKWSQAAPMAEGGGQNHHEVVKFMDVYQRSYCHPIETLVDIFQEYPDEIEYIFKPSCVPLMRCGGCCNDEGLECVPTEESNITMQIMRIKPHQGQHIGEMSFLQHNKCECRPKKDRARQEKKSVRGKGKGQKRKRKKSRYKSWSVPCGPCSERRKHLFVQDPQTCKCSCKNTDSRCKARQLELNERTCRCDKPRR

[3] = molecular target: bFGF (soluble stimulus added to cell cultures); experiment: cell-based or functional assay
[4] = molecular target: VEGF (soluble stimulus added to cell cultures); experiment: cell-based or functional assay; remark: listed apart in the source
[5] = molecular target: Human VEGF (dendritic cell assay) (human, UniProt P15692-4 27-191, limits assumed); experiment: cell-based or functional assay
GST-hVEGF121 [6] = molecular target: T1, GST-hVEGF121; experiment: ELISA, coated GST-hVEGF; remark: listed apart in the source
Method: as §1

GST-hVEGF121 [7] = molecular target: T1, GST-hVEGF121; experiment: competition ELISA, coated GST-hVEGF, competitor Fc-VEGFR2
Method: (§2) The ability of VHHs to hinder receptors for binding to their ligand was assessed by ELISA, for which 96-well plates (NUNC, USA) were coated with GST-hVEGF or bFGF and blocked as described in the previous section. Serial 1:2 dilutions of the purified VHHs, from […] to […], were added and the plates and incubated for 1 h at 37° C. In this step, some wells were left where only PBS-milk was added. […] After 45 min incubation at 37° C., plates were washed with PBS-0.05% Tween. To detect receptor binding, HRP-conjugated anti-human IgG antibody was added, diluted 1:5000 in PBS-0.5% milk. After incubation for 1 h at 37° C., the plates were washed with PBS-Tween, and TMB was added. The reaction was stopped after 10 min. Wells incubated with the receptors without the addition of the antibody fragments were taken as reference for maximum binding in the absence of competitor. In this assay, in the case of inhibition of the VEGF/VEGFR axis, the CIGB166a antibody fragment was used as a positive control, and an anti-FGF polyclonal antibody was used for the FGF/FGFR axis. The percentage of inhibition of receptor binding to its ligand was calculated as follows: […]
The biological effect of VEGF is a consequence of its binding to two fundamental receptors (VEGFR1 and VEGFR2), so for a polypeptide that binds to VEGF to be effective in the therapeutic setting, it must block these interactions (Shibuya, Cell Structure and Function, 2001: 26: 25-35). The ability of Nb-V1 to compete with receptors 1 and 2 for binding to its ligand (VEGF) was assessed by solid phase ligand competition ELISA, as described above.

Recombinant human bFGF [8] = molecular target: T2, Recombinant human bFGF (human, UniProt P09038 143-288, limits assumed); experiment: ELISA, coated bFGF
T2 construct: Bought (Sigma); also called hFGF-2; human basic fibroblast growth factor
T2 sequence (P09038 143-288 limits assumed): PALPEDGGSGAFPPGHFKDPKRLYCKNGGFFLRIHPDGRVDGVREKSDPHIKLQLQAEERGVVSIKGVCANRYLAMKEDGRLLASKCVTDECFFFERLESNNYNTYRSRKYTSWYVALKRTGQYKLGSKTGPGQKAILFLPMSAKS
Method: The plates were incubated for 1 hour at 37° C. and after several washes, the monoclonal antibody 9E10, specific for c-myc, was added. After one hour of incubation at 25° C. the plates were washed thoroughly. The binding of the fragment to the antigen in the solid phase was detected by the peroxidase activity using 100 μL/well of TMB. The reaction was stopped with 50 μL/well of stop solution, and absorbance values at 450 nm were determined in a microtiter plate reader.
SEQ ID NO: 18 and SEQ ID NO: 19, and the bivalent Nb-VV6 and Nb-FF2, with sequences identified as SEQ ID NO: 20 and SEQ ID NO: 21, were expressed and purified as described in the Example 1. In all cases, the purity and identity of the proteins were verified by SDS-PAGE 12% and anti-polyhistidine Western Blot. […] The experimental mass of the polypeptides and the arrangement of the disulfide bridges were checked by ESI/MS-MS. […] The biological activity of the polypeptides was evaluated by ELISA for recognition of the VEGF and bFGF antigens, and by their ability to displace VEGF and bFGF binding to their respective VEGFR2 and FGFR1 receptors. […] In agreement with the increase in recognition, a decrease in the KD of the fragments was observed, calculated according to the methodology described by Beatty et al (Beatty J D, Beatty B G, Vlahos W G. J Immunol Methods. 1987 Jun. 26;100(1-2):173-9).

Recombinant human bFGF [9] = molecular target: T2, Recombinant human bFGF; experiment: ELISA, coated human bFGF
Method: as §1
SEQ ID NO: 18 and SEQ ID NO: 19, and the bivalent Nb-VV6 and Nb-FF2, with sequences identified as SEQ ID NO: 20 and SEQ ID NO: 21, were expressed and purified as described in the Example 1. In all cases, the purity and identity of the proteins were verified by SDS-PAGE 12% and anti-polyhistidine Western Blot. […] The experimental mass of the polypeptides and the arrangement of the disulfide bridges were checked by ESI/MS-MS. The experimental and theoretical mass, for each polypeptide coincided, with errors less than 0.0015% in all cases, and the formation of intramolecular bridges between C22-C101 and C168-C247 was verified. […] The biological activity of the polypeptides was evaluated by ELISA for recognition of the VEGF and bFGF antigens, and by their ability to displace VEGF and bFGF binding to their respective VEGFR2 and FGFR1 receptors. […] Similarly, it was shown that the ability to displace the binding of antigens by their receptors was not affected.

Recombinant human bFGF [10] = molecular target: T2, Recombinant human bFGF; experiment: competition ELISA, coated bFGF, competitor Fc-FGFR1
Method: as §2

Binder | fold decrease of EC50 against Nb-V1 (GST-hVEGF121 [1]) [fold] | IC50, proliferation of HDMEC cells +VEGF (5 ng/ml) [2] [nM] | IC50, proliferation of HDMEC cells +bFGF (10 ng/ml) [3] [nM] | PD1 expression (%) in CD8+ cells treated with VEGF, VHH 1 µg/mL [4] [%] | PD1 expression (%) in CD8+ cells treated with VEGF, VHH 5 µg/mL [4] [%] | PD1 expression (%) in CD8+ cells treated with VEGF, VHH 10 µg/mL [4] [%] | CD86 (MFI) on dendritic cells +VEGF +LPS, VHH 1 µg/mL [5] [MFI] | CD86 (MFI) on dendritic cells +VEGF +LPS, VHH 5 µg/mL [5] [MFI] | CD86 (MFI) on dendritic cells +VEGF +LPS, VHH 10 µg/mL [5] [MFI] | MHCII (MFI) on dendritic cells +VEGF +LPS, VHH 1 µg/mL [5] [MFI] | MHCII (MFI) on dendritic cells +VEGF +LPS, VHH 5 µg/mL [5] [MFI] | MHCII (MFI) on dendritic cells +VEGF +LPS, VHH 10 µg/mL [5] [MFI] | EC50 (GST-hVEGF121 [6]) [nM] | IC50 (GST-hVEGF121 [7]) [nM] | fold decrease of EC50 against Nb-F3 (Recombinant human bFGF [8]) [fold] | EC50 (Recombinant human bFGF [9]) [nM] | IC50 (Recombinant human bFGF [10]) [nM]
B1 | 2 | 30 | > 6000 | 52 | 41 | 36 | 4200 | 6520 | 18000 | 5110 | 11200 | 18700 | 1.9 | 5.6 | – | – | –
B2 | – | > 6000 | 50 | – | – | – | – | – | – | – | – | – | – | – | 2 | 5.86 | 53.5
